The values that follow come from article PMC9719028 (Life Science Alliance, 2022).

For one series, the target named is T1, DIRC2-AA (Homo sapiens, UniProt Q96SL1, L14A/L15A).
T1 construct: gene SLC49A4; untagged DIRC2-AA in pCI-neo, N-terminal dileucine motif (E10RQPL14L15) replaced by dialanine, redirected to plasma membrane of transiently transfected COS-7 cells; FLAG-tagged form mostly present as cleaved product
T1 sequence (Q96SL1 1-478 L14A/L15A): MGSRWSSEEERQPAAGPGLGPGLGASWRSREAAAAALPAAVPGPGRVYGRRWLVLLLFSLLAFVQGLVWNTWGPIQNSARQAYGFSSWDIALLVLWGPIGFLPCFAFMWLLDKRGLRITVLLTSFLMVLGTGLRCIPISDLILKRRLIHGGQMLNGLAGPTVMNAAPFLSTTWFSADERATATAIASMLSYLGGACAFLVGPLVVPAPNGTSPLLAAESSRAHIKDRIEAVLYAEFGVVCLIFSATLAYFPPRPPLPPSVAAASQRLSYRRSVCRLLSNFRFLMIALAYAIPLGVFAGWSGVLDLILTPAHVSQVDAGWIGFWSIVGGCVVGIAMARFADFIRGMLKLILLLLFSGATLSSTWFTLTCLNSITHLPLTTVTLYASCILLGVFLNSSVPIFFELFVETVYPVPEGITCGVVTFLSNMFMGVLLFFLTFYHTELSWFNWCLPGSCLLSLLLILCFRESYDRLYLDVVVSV
The experiment in a line: inhibition of specific [3H]pyridoxine uptake in transfected COS-7 cells. The conditions noted are these: 10 nM [3H]pyridoxine, 1 mM test compound, pH 5.0, 37 °C, 1 min. Format: cell-based.

Substrate in series [1]: Cc1ncc(CO)c(CO)c1O
Nature of the series: cells, lysate or membranes. Conditions: pH 5.0, 37 °C, 1 min, labelled compound.

As for `Cc1ncc(CO)c(C)c1O` [4-deoxypyridoxine], the “% inhibition at 1 mM” value on DIRC2-AA is “only 4-deoxypyridoxine other than pyridoxine significantly inhibited the DIRC2-AA–specific uptake”.

B1: EGFP-THTR2 (Homo sapiens) (protein)
chain: MDCYRTSLSSSWIYPTVILCLFGFFSMMRPSEPFLIPYLSGPDKNLTSAEITNEIFPVWTYSYLVLLLPVFVLTDYVRYKPVIILQGISFIITWLLLLFGQGVKTMQVVEFFYGMVTAAEVAYYAYIYSVVSPEHYQRVSGYCRSVTLAAYTAGSVLAQLLVSLANMSYFYLNVISLASVSVAFLFSLFLPMPKKSMFFHAKPSREIKKSSSVNPVLEETHEGEAPGCEEQKPTSEILSTSGKLNKGQLNSLKPSNVTVDVFVQWFQDLKECYSSKRLFYWSLWWAFATAGFNQVLNYVQILWDYKAPSQDSSIYNGAVEAIATFGGAVAAFAVGYVKVNWDLLGELALVVFSVVNAGSLFLMHYTANIWACYAGYLIFKSSYMLLITIAVFQIAVNLNVERYALVFGINTFIALVIQTIMTVIVVDQRGLNLPVSIQFLVYGSYFAVIAGIFLMRSMYITYSTKSQKDVQSPAPSENPDVSHPEEESNIIMSTKL
By Km is commonly meant the substrate concentration at which the rate is half of its maximum. For B1, the Km in series [1] (Hanks' solution with MES) was 20 ± 1 µM.

B2: DIRC2-AA (Homo sapiens; L14A/L15A) (protein)
chain: MGSRWSSEEERQPAAGPGLGPGLGASWRSREAAAAALPAAVPGPGRVYGRRWLVLLLFSLLAFVQGLVWNTWGPIQNSARQAYGFSSWDIALLVLWGPIGFLPCFAFMWLLDKRGLRITVLLTSFLMVLGTGLRCIPISDLILKRRLIHGGQMLNGLAGPTVMNAAPFLSTTWFSADERATATAIASMLSYLGGACAFLVGPLVVPAPNGTSPLLAAESSRAHIKDRIEAVLYAEFGVVCLIFSATLAYFPPRPPLPPSVAAASQRLSYRRSVCRLLSNFRFLMIALAYAIPLGVFAGWSGVLDLILTPAHVSQVDAGWIGFWSIVGGCVVGIAMARFADFIRGMLKLILLLLFSGATLSSTWFTLTCLNSITHLPLTTVTLYASCILLGVFLNSSVPIFFELFVETVYPVPEGITCGVVTFLSNMFMGVLLFFLTFYHTELSWFNWCLPGSCLLSLLLILCFRESYDRLYLDVVVSV
Take B2: in series [1] (Hanks' solution with MES (NaCl present), H+-coupled uptake), the Km amounted to 522 ± 63 µM.

B3: EGFP-DIRC2-AA (Homo sapiens; L14A/L15A) (protein)
chain: MGSRWSSEEERQPAAGPGLGPGLGASWRSREAAAAALPAAVPGPGRVYGRRWLVLLLFSLLAFVQGLVWNTWGPIQNSARQAYGFSSWDIALLVLWGPIGFLPCFAFMWLLDKRGLRITVLLTSFLMVLGTGLRCIPISDLILKRRLIHGGQMLNGLAGPTVMNAAPFLSTTWFSADERATATAIASMLSYLGGACAFLVGPLVVPAPNGTSPLLAAESSRAHIKDRIEAVLYAEFGVVCLIFSATLAYFPPRPPLPPSVAAASQRLSYRRSVCRLLSNFRFLMIALAYAIPLGVFAGWSGVLDLILTPAHVSQVDAGWIGFWSIVGGCVVGIAMARFADFIRGMLKLILLLLFSGATLSSTWFTLTCLNSITHLPLTTVTLYASCILLGVFLNSSVPIFFELFVETVYPVPEGITCGVVTFLSNMFMGVLLFFLTFYHTELSWFNWCLPGSCLLSLLLILCFRESYDRLYLDVVVSV
In the case of B3, the Michaelis constant (Km) in series [1] (Hanks' solution with MES (NaCl present), H+-coupled uptake, caption names it FLAG-DIRC2-AA once, text says EGFP-DIRC2-AA) worked out at 476 ± 19 µM.
